Bridge positions count the residues as written; N and C are the ends. * marks the point of attachment. Palmitoyl = CCCCCCCCCCCCCCCC(=O)*
Assay: hLFF-peptide precipitation test (freeze-thawing)
Type: physicochemical
Settings: 2 mM peptide in 50 mM Hepes buffer pH 8, freezing at −18° C.
Procedure: hLFF-peptides tested for precipitation by one freeze-thawing cycle (freezing at −18° C.) with hLFF peptides dissolved in 50 mM Hepes buffer pH 8 at a concentration of 2 mM.
Solutions of acylated and biacylated human lactoferrin peptides were tested for precipitation in several freeze-thaw cycles.

Substance	precipitation of peptide solution after freeze-thawing
palmitoyl-NH-KCFQWQRNMRKVRGPPVSCIKR-CONH2 (Palmitoyl-KCFQWQRNMRKVRGPPVSCIKR-NH2; disulfide 2-19) [C16-hLFF]	do not precipitate
Acetyl-NH-KCFQWQRNMRKVRGPPVSCIKR-CONH2 (Ac-KCFQWQRNMRKVRGPPVSCIKR-NH2; disulfide 2-19; listed as Homo sapiens) [C2-hLFF]	do not precipitate

Reference: patent US11052053B2, “Nanoparticle comprising a bio-resorbable polyester, a hydrophilic polymer and an acylated human lactoferrin-derived peptide” (Evonik Operations GmbH, priority 2018, dated 2021)
